Reference: patent publication US20210238281A1 (INSTITUT NATIONAL DE LA SANTE ET DE LA RECHERCHE MEDICALE …, published 2021)

T1: recombinant human MOG protein (human, UniProt Q16653 30-154, limits assumed)
T1 construct: Bought recombinant protein; also called HMOG
T1 sequence (looked up): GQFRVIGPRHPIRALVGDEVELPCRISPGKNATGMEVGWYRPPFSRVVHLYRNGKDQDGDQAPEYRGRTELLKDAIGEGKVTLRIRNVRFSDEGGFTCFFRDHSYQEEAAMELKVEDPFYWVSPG

T2: recombinant murine MOG protein (murine, UniProt Q61885 29-156, limits assumed)
T2 construct: Bought recombinant protein; also called MMOG
T2 sequence (looked up): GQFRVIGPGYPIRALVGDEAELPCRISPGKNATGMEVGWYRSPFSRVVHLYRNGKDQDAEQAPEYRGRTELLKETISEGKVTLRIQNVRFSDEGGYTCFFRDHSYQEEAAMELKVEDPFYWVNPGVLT


How the values were obtained:
[1] = biological target: T1, recombinant human MOG protein; assay: phage-scFv ELISA on coated recombinant human MOG (0.5 µg/well), anti-M13 HRP, OD450 over BSA background
Method: (§1) The binding characteristics of the scFvs expressed on the surface of the phages isolated during the screening were determined using an ELISA assay using the recombinant MOG protein (R&D system). Along with the selected clones, phage-scFv-8-18C5 is expressed to serve as a positive control for ELISA. Briefly, phage-scFv were produced in the form of clones isolated on a 96-well plate in 800 μl of 2YT/ampicillin/glucose cultures infected with the helper phage M13K07 (as described previously). The phages produced overnight at 26° C. were then recovered in the supernatants after 30 minutes of centrifugation at 3000 g. These supernatants were directly diluted 1/2 in PBS/4% BSA/0.1% Tween 20 and tested on Maxisorp immunoplates previously coated with 0.5 μg of human or murine MOG or PBS (background control (bdf) in BSA)/well and blocked with 4% BSA in PBS. After incubation for 2 hours at 37° C., the wells were washed 3 times with PBS/0.1% Tween-20 and bound phages-scfv were detected with anti-M13 HRP antibody (GE Healthcare). The plate is read at 450 nm (OD) on a plate reader (TECAN). The results are expressed as a ratio: OD on target/OD bdf (OD on an uncoated plate saturated with BSA) and the ratios are compared with that obtained for the positive control.

[2] = biological target: T2, recombinant murine MOG protein; assay: phage-scFv ELISA on coated recombinant murine MOG (0.5 µg/well), anti-M13 HRP, OD450 over BSA background
Method: as §1

ratio OD on target/OD bdf [1] [ratio]	ratio OD on target/OD bdf [2] [ratio]	Binder
2.09	2.75	anti-MOG MO3I-60 antibody (scFv, V domains shown) VH: EVQLVESGGGLVKPGGSLGLSCAASGFTFTNAWGHWVRQAPGKGLEWVGRIKSKTDGGTTDYAAPVKDRFSISRDDSKNTLYLQMNSPTTEDTAVYYCATENGMDIVTTFDSWGQGTLVTVSS VL: AIRMTQSPSSLSASVGDRVTITCRASQSIGSYLSWYRQKPGKAPKLLIYDSSTLQSGVASRFSGSGSGTDFTLTISALQPEDFATYYCHQSYRTPLSFGGGTKVEIK
2.55	2.78	anti-MOG MO4H-106 antibody (scFv, V domains shown) VH: QVQLVQSGAEVKKPGASVKVSCKASGYTFTTYNIHWMRQAPGQSLEWMGWISTGNGDTEYSQKLQGSVTFTRDTSASTVYMDLNSLTPGDTAVYSCARESLFVSSWYADYWGQGTLVTVSS VL: not shown
2.04	4.01	anti-MOG MO4H-118 antibody (scFv, V domains shown) VH: EVQLVQSGAEVKKPGASVKVSCKVSGYTLTELSMHWVRQAPGKGLEWMGGFDPEDGETIYAQKFQGRVTMTEDTSTDTAYMELSSLRSEDTAVYYCATIGPKVAAHTYYFDYWGQGTLVTVSS VL: DIQLTQSPSSLSASVGDRVTITCRASQTIVTYLNWYQQKPGKAPNLLITDASSLQSGVPSRFSGTESGTDFTLTISSLQPEDFGSYYCQSYMNPITFGQGTRLEIN
20.8	8.26	anti-MOG MO3J-43 antibody (scFv, V domains shown) VH: EVQLVESGGGLVKPGGSLRLSCAASGFTFSDYYMSWIRQAPGKGLEWVSYISSSGNTIYYADSVKGRFTISRDNAKNSLYLQMNSLRAEDTAVYYCAKDSPVPTVWGQGTLVTVSS VL: QSVVTQPPSVSGAPGQRVSISCTGGSSNIGADYDVHWYQQLPGTAPKLLIYGNNNRPSGVPDRFSGSKSGTSASLAISGLQPEDEAVYYCQSYDSGLRSSVFGGGTKLTVL
2.53	2.52	anti-MOG MO3I-33 antibody (scFv, V domains shown) VH: DQVQLVQSGAEVKPGATVKISCKVSGYTFTDYYMHWVQQAPGKGLEWMGLVDPEDGETIYAEKFQGRVTITADTSTDTAYMELSSLRSEDTAVYYCATSYHGTSGFDYWGQGTLVTVSS VL: QSVVTQPPSVSGAPGQRVTIACTGSNSDIGAGHDVHWYQQFPRTAPKLIIFGNTNRPSGVPDRFSGSKSGTSASLVITGLQADDEADYHCQSYDNNLSGPIFGGGTKLTVL
2.66	5.55	anti-MOG MO3I-63 antibody (scFv, V domains shown) VH: QVQLVQSGAEVKTPGASVKISCKASGYAFTSYAMHWVRAPGQGLEWMGWINAANANTKYSQRFQGRVTITRDTSASTAYMELNSLRSEDTAVYYCASSEDISRSNYYNYYMDVWGKGTTVTVSS VL: DIVMTQSPSSLSASVGDRVTITCRASQTITTSLAWFQHRPGKAPKLLIYSASSLQSGVPSRFSGSGSGTDFTLTISSLQPEDFATYSCQQTYSAPPTFGGGTKVEIK
16.3	6.86	anti-MOG MO3J-52 antibody (scFv, V domains shown) VH: QMQLVQSGAEVKKPGSSVKVSCKASGGTFSSYAISWVRQAPGQGLEWMGGIIPIFGTANYAQKFQGRVTITADESTSTAYMELSSLRSEDTAVYYCARAREGLLVNYYGMDVWGQGTLVTVSS VL: DIQMTQSPSTLSASVGDRVTTTCRASQGISNYLAWFQQKPGKAPKSLIYAASSLQSGVPSRFSGGGSGTDFTLTINSLQPEDFATYYCLHDYNYPTFGQGTKVEIK
2.29	2.29	anti-MOG MO3I-56 antibody (scFv, V domains shown) VH: QVQLVESGGGVVQPGSSLRLSCTASGFKFDDYAMHWVRQAPGKGLEWVSGISWNSGSIGYADSVKGRFTISRDNAKNSLYLQMNSLRAEDTASYYCAKSLPHYYDSPPYGMDVWGQGTLVTVSS VL: DIQLTQSPSSLSASVGDRVTITCRASQGISSALAWYQQKPGKAPKLLIYDASSLESGVPSRFSGSGSGTDFTLTISSLQPEDFATYYCQHRGTFGGGTKVDIK
14.5	6.61	anti-MOG MO3J-44 antibody (scFv, V domains shown) VH: QVQLVQSGAEVRKPGASVKISCQISGYNFISYTIQWVRQAPGQRPEWMGWINSGNGNTKYSQKFQGRVTFTRDTSTSTAYMELSSLRSEDTAVYYCARSGIGPWGQGTLVTVSS VL: EIVLTQPPDLQSVTPKKKVTITCRASQSIGNSLHWCQQKPDQSPKLLIKYASQSISGVPSRFSGSGSGTDFTLTINSLEAEDAATYYCHQSSSLPFTFGPGTKVDIK
21	6.48	anti-MOG MO3J-40 antibody (scFv, V domains shown) VH: EVQLVESGAEVKKPGESLKISCKGSGYTFTSNWIGWVRQMPGKGLEWMGIIYPGDSDTRYSPSFQGQGTISADKSISTAYLQWSSLRASDTAMYYCARASIAVRPHIDYWGQGTLVTVSS VL: not shown
14.6	4.76	anti-MOG MO3J-51 antibody (scFv, V domains shown) VH: EVQLVQSGAEVKKPGASVKVSCKASGYTFTSYGISWVRQAPGQGLEWMGWISAYNGNTNYAQKLQGRVTMTTDTSTSTAYMELRSLGSDDTAVYYCARNMGCSSTSCFVSWFDPWGQGTLVTVSS VL: QSVLTQPPSVSAAPGRKVTISCSGSSSNIGNNYVAWYQQLPGTAPKLLIYENNKRPSGIPGRFSGSKSATSATLGITGLQTGDEADYYCGTWDNSLSAWVFGGGTKLTVL
2.14	2.45	anti-MOG MO3I-34 antibody (scFv, V domains shown) VH: EVQLVQSGAEVKKPGASVKVSCKASGYTFTSYGISWVRQAPGQGLEWMGWISAYNGNTNYAQKLQGRVTMTTDTSTSTAYMELRSLRSDDTAVYYCARNMGCSSTSCFVSWFDPWGQGTLVTVSS VL: QSVLTQPPSVSAAPGQKVTISCSGSRSNIGSNYVSWYQQLPGTAPKLLIYDNTRRPSGIPDRFYGSKSGTSATLDITGLQTGDEADYHCATWDSSLSALLFGGGTKVTVL
2.26	2.76	anti-MOG MO3I-69 antibody (scFv, V domains shown) VH: DQVQLVQSGAEVKPGASVKVSCKASGYTFTYYYLHWVRQAPGQGLEWMGWINPNSGATIFAQKFQGRVTLTRDTSISTAYLDLSRLRSDDTAVYYCARASMAYQYHSDVDYWGLGTLVTVSS VL: QSVLTQPPSVSGAPGQRVTISCTGSSSNIGAGYDVHWYQQLPGTAPKLLIYGNSNRPSGVPDRFSGSKSGTSASLAITGLQAEDEADYYCQSYDSSLVVFGGGTKLTVL
2.44	2.77	anti-MOG MO3I-57 antibody (scFv, V domains shown) VH: QVQLVQSGAEVKKPGASVKVSCKASGYTFSSYGISWVRQAPGQGLEWMGWISANTGNTDYAERLQGRVTMTTDTSTTTAYMELRSLRSDDTAVYYCARGAPNGYAVDYWGQGTLVTVSS VL: QSVLTQPPSASGAPGQRVSISCSGSSSNIGTNHVYWYQQFTGMAPKLIIDTNNQRPPGVPARFSGSKSGTSASLAISGLRSEDESDYYCLTWDDGLYDWVFGGGTKLTVL
2.86	2.19	anti-MOG MO3I-30 antibody (scFv, V domains shown) VH: EVQLLESGGGLVQPGGSLRLSCVASGFTFRSYWMHWVRQDPGEGLVWVSRVSGDGSSTNYADSVKGRFVISRDNAKDTLYLQMYSLRGEDTAVYYCLRGNDGYGNFDYWGQGTTVTVSS VL: DVVMTQSPLSLPVTLGQPASISCRPSQSLVYSDGNTYLNWFQQRPGQSPRRLIYKVSNRDYVVPDRFSGSGSGTDFTLKISRVEAEDVGVYYCMQGTHWPLTFGGGTKVEIK
